Here are results for one variant from IntAct's records for PubMed 26040720.

The chains are these.
B1: Reticulophagy regulator 1 (Homo sapiens), Q9H6L5-1 (parent)
chain: MASPAPPEHAEEGCPAPAAEEQAPPSPPPPQASPAERQQQEEEAQEAGAAEGAGLQVEEAAGRAAAAVTWLLGEPVLWLGCRADELLSWKRPLRSLLGFVAANLLFWFLALTPWRVYHLISVMILGRVIMQIIKDMVLSRTRGAQLWRSLSESWEVINSKPDERPRLSHCIAESWMNFSIFLQEMSLFKQQSPGKFCLLVCSVCTFFTILGSYIPGVILSYLLLLCAFLCPLFKCNDIGQKIYSKIKSVLLKLDFGIGEYINQKKRERSEADKEKSHKDDSELDFSALCPKISLTVAAKELSVSDTDVSEVSWTDNGTFNLSEGYTPQTDTSDDLDRPSEEVFSRDLSDFPSLENGMGTNDEDELSLGLPTELKRKKEQLDSGHRPSKETQSAAGLTLPLNSDQTFHLMSNLAGDVITAAVTAAIKDQLEGVQQALSQAAPIPEEDTDTEEGDDFELLDQSELDQIESELGLTQDQEAEAQQNKKSSGFLSNLLGGH

Variants of B1 are the subject of the assay. The note with it: with MAP1LC3A.
Regarding MASPAPPEHAEEGCPAPAAEEQAPPSPPPPQASPAERQQQEEEAQEAGAAEGAGLQVEEAAGRAAAAVTWLLGEPVLWLGCRADELLSWKRPLRSLLGFVAANLLFWFLALTPWRVYHLISVMILGRVIMQIIKDMVLSRTRGAQLWRSLSESWEVINSKPDERPRLSHCIAESWMNFSIFLQEMSLFKQQSPGKFCLLVCSVCTFFTILGSYIPGVILSYLLLLCAFLCPLFKCNDIGQKIYSKIKSVLLKLDFGIGEYINQKKRERSEADKEKSHKDDSELDFSALCPKISLTVAAKELSVSDTDVSEVSWTDNGTFNLSEGYTPQTDTSDDLDRPSEEVFSRDLSDFPSLENGMGTNDEDELSLGLPTELKRKKEQLDSGHRPSKETQSAAGLTLPLNSDQTFHLMSNLAGDVITAAVTAAIKDQLEGVQQALSQAAPIPEEDTDTEEGAAAAAADQSELDQIESELGLTQDQEAEAQQNKKSSGFLSNLLGGH [D453A;D454A;F455A;E456A;L457A;L458A], the “effect of a mutation on the interaction” value is “disrupting interaction strength”.
